B1: 1ZHC (parent)
chain: HEFRDEISVLKANNPHFDKIFEKHNQLDDDIKTAEQQNASDAEVSHMKKQKLKLKDEIHSMIIEYREK

Variants of: B1
Experiment: folding stability dG (cDNA display proteolysis); higher = more stable
Conditions: PBS, room temperature

Variant	folding stability dG
HEFRDEISVLKANNPHFDKIFEKHNQLDDDIKTAEQQWASDAEVSHMKKQKLKLKDEIHSMIIEYREK [N38W]	-0.188 kcal/mol
HEFRDEISVLKANNPHFDKIFEKHNQLDDDIKTAEQQTASDAEVSHMKKQKLKLKDEIHSMIIEYREK [N38T]	0.312 kcal/mol
HEFRDEISVLKANNPHFDKIFEKHNQLDDDIKTAEQQYASDAEVSHMKKQKLKLKDEIHSMIIEYREK [N38Y]	0.303 kcal/mol
HEFRDEISVLKANNPHFDKIFEKHNQLDDDIKTAEQQRASDAEVSHMKKQKLKLKDEIHSMIIEYREK [N38R]	0.634 kcal/mol
HEFRDEISVLKANNPHFDKIFEKHNQLDDDIKTAEQQQASDAEVSHMKKQKLKLKDEIHSMIIEYREK [N38Q]	-0.49 kcal/mol
HEFRDEISVLKANNPHFDKIFEKHNQLDDDIKTAEQQVASDAEVSHMKKQKLKLKDEIHSMIIEYREK [N38V]	-0.172 kcal/mol
HEFRDEISVLKANNPHFDKIFEKHNQLDDDIKTAEQQSASDAEVSHMKKQKLKLKDEIHSMIIEYREK [N38S]	0.358 kcal/mol
HEFRDEISVLKANNPHFDKIFEKHNQLDDDIKTAEQQNNSDAEVSHMKKQKLKLKDEIHSMIIEYREK [A39N]	0.078 kcal/mol
HEFRDEISVLKANNPHFDKIFEKHNQLDDDIKTAEQQNESDAEVSHMKKQKLKLKDEIHSMIIEYREK [A39E]	0.246 kcal/mol
HEFRDEISVLKANNPHFDKIFEKHNQLDDDIKTAEQQNHSDAEVSHMKKQKLKLKDEIHSMIIEYREK [A39H]	0.973 kcal/mol
HEFRDEISVLKANNPHFDKIFEKHNQLDDDIKTAEQQNVSDAEVSHMKKQKLKLKDEIHSMIIEYREK [A39V]	0.986 kcal/mol
HEFRDEISVLKANNPHFDKIFEKHNQLDDDIKTAEQQNFSDAEVSHMKKQKLKLKDEIHSMIIEYREK [A39F]	1.07 kcal/mol
HEFRDEISVLKANNPHFDKIFEKHNQLDDDIKTAEQQNPSDAEVSHMKKQKLKLKDEIHSMIIEYREK [A39P]	0.131 kcal/mol
HEFRDEISVLKANNPHFDKIFEKHNQLDDDIKTAEQQNCSDAEVSHMKKQKLKLKDEIHSMIIEYREK [A39C]	0.897 kcal/mol
HEFRDEISVLKANNPHFDKIFEKHNQLDDDIKTAEQQNSSDAEVSHMKKQKLKLKDEIHSMIIEYREK [A39S]	0.359 kcal/mol
HEFRDEISVLKANNPHFDKIFEKHNQLDDDIKTAEQQNLSDAEVSHMKKQKLKLKDEIHSMIIEYREK [A39L]	1.36 kcal/mol
HEFRDEISVLKANNPHFDKIFEKHNQLDDDIKTAEQQNRSDAEVSHMKKQKLKLKDEIHSMIIEYREK [A39R]	1.33 kcal/mol
HEFRDEISVLKANNPHFDKIFEKHNQLDDDIKTAEQQNKSDAEVSHMKKQKLKLKDEIHSMIIEYREK [A39K]	1.1 kcal/mol
HEFRDEISVLKANNPHFDKIFEKHNQLDDDIKTAEQQNDSDAEVSHMKKQKLKLKDEIHSMIIEYREK [A39D]	0.034 kcal/mol
HEFRDEISVLKANNPHFDKIFEKHNQLDDDIKTAEQQNISDAEVSHMKKQKLKLKDEIHSMIIEYREK [A39I]	0.873 kcal/mol

Variant	folding stability dG
HEFRDEISVLKANNPHFDKIFEKHNQLDDDIKTAEQQNTSDAEVSHMKKQKLKLKDEIHSMIIEYREK [A39T]	0.09 kcal/mol
HEFRDEISVLKANNPHFDKIFEKHNQLDDDIKTAEQQNYSDAEVSHMKKQKLKLKDEIHSMIIEYREK [A39Y]	0.83 kcal/mol
HEFRDEISVLKANNPHFDKIFEKHNQLDDDIKTAEQQNMSDAEVSHMKKQKLKLKDEIHSMIIEYREK [A39M]	0.936 kcal/mol
HEFRDEISVLKANNPHFDKIFEKHNQLDDDIKTAEQQNQSDAEVSHMKKQKLKLKDEIHSMIIEYREK [A39Q]	0.259 kcal/mol
HEFRDEISVLKANNPHFDKIFEKHNQLDDDIKTAEQQNGSDAEVSHMKKQKLKLKDEIHSMIIEYREK [A39G]	0.787 kcal/mol
HEFRDEISVLKANNPHFDKIFEKHNQLDDDIKTAEQQNWSDAEVSHMKKQKLKLKDEIHSMIIEYREK [A39W]	1.3 kcal/mol
HEFRDEISVLKANNPHFDKIFEKHNQLDDDIKTAEQQNALDAEVSHMKKQKLKLKDEIHSMIIEYREK [S40L]	0.393 kcal/mol
HEFRDEISVLKANNPHFDKIFEKHNQLDDDIKTAEQQNAIDAEVSHMKKQKLKLKDEIHSMIIEYREK [S40I]	-0.234 kcal/mol
HEFRDEISVLKANNPHFDKIFEKHNQLDDDIKTAEQQNADDAEVSHMKKQKLKLKDEIHSMIIEYREK [S40D]	0.774 kcal/mol
HEFRDEISVLKANNPHFDKIFEKHNQLDDDIKTAEQQNAADAEVSHMKKQKLKLKDEIHSMIIEYREK [S40A]	0.255 kcal/mol
HEFRDEISVLKANNPHFDKIFEKHNQLDDDIKTAEQQNAHDAEVSHMKKQKLKLKDEIHSMIIEYREK [S40H]	0.256 kcal/mol
HEFRDEISVLKANNPHFDKIFEKHNQLDDDIKTAEQQNAMDAEVSHMKKQKLKLKDEIHSMIIEYREK [S40M]	-0.003 kcal/mol
HEFRDEISVLKANNPHFDKIFEKHNQLDDDIKTAEQQNACDAEVSHMKKQKLKLKDEIHSMIIEYREK [S40C]	0.351 kcal/mol
HEFRDEISVLKANNPHFDKIFEKHNQLDDDIKTAEQQNAGDAEVSHMKKQKLKLKDEIHSMIIEYREK [S40G]	0.619 kcal/mol
HEFRDEISVLKANNPHFDKIFEKHNQLDDDIKTAEQQNAFDAEVSHMKKQKLKLKDEIHSMIIEYREK [S40F]	0.13 kcal/mol
HEFRDEISVLKANNPHFDKIFEKHNQLDDDIKTAEQQNAKDAEVSHMKKQKLKLKDEIHSMIIEYREK [S40K]	0.104 kcal/mol
HEFRDEISVLKANNPHFDKIFEKHNQLDDDIKTAEQQNAQDAEVSHMKKQKLKLKDEIHSMIIEYREK [S40Q]	0.039 kcal/mol
HEFRDEISVLKANNPHFDKIFEKHNQLDDDIKTAEQQNAPDAEVSHMKKQKLKLKDEIHSMIIEYREK [S40P]	0.855 kcal/mol
HEFRDEISVLKANNPHFDKIFEKHNQLDDDIKTAEQQNANDAEVSHMKKQKLKLKDEIHSMIIEYREK [S40N]	1.12 kcal/mol
HEFRDEISVLKANNPHFDKIFEKHNQLDDDIKTAEQQNAEDAEVSHMKKQKLKLKDEIHSMIIEYREK [S40E]	0.469 kcal/mol
